{"source": "patent US20140030216", "proteins": {"B1": {"name": "Purified human MMP-2 (mixture of the proenzyme (50%) and the active form (50%)) (protein)", "chain": "YNFFPRKPKWDKNQITYRIIGYTPDLDPETVDDAFARAFQVWSDVTPLRFSRIHDGEADIMINFGRWEHGDGYPFDGKDGLLAHAFAPGTGVGGDSHFDDDELWTLGEGQVVRVKYGNADGEYCKFPFLFNGKEYNSCTDTGRSDGFLWCSTTYNFEKDGKYGFCPHEALFTMGGNAEGQPCKFPFRFQGTSYDSCTTEGRTDGYRWCGTTEDYDRDKKYGFCPETAMSTVGGNSEGAPCVFPFTFLGNKYESCTSAGRSDGKMWCATTANYDDDRKWGFCPDQGYSLFLVAAHEFGHAMGLEHSQDPGALMAPIYTYTKNFRLSQDDIKGIQELYGASPDIDLGTGPTPTLGPVTPEICKQDIVFDGIAQIRGEIFFFKDRFIWRTVTPRDKPMGPLLVATFWPELPEKIDAVYEAPQEEKAVFFAGNEYWIYSASTLERGYPKPLTSLGLPPDVQRVDAAFNWSKNKKTYIFAGDKFWRYNEVKKKMDPGFPKLIADAWNAIPDNLDAVVDLQGGGHSYFFKGAYYLKLENQSLKSVKFGSIKSDWLGC"}}, "key": {"[1]": {"molecular_target": "T1, recombinant rhIFNAR1 (≈110 kD), P17181", "T1 chain": "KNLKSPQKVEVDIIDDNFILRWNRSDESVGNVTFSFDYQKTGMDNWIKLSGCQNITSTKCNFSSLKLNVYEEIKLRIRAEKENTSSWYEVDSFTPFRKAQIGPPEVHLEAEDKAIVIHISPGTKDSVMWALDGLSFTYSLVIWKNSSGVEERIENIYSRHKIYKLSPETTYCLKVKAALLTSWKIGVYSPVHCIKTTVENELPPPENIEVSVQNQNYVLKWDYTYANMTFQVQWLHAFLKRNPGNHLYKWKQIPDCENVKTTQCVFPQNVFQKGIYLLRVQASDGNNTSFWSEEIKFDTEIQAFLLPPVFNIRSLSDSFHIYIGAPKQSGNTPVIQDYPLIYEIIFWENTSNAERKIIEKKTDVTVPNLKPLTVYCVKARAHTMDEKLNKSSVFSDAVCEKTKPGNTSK"}, "[2]": {"molecular_target": "rhMCP-3, P80098", "sequence (P80098 24-99)": "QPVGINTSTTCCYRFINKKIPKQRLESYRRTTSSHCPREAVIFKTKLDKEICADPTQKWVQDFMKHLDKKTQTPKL"}}, "data": [{"protein": "B1", "values": [{"measurement": "degradation of rhIFNAR1 after overnight incubation with MMP-2 (Western blot)", "setting": "[1]", "value": "recombinant rhIFNAR1 (≈110 kD) incubated overnight with active MMP-2 was degraded by MMP-2"}, {"measurement": "MCP-3 degradation (MCP-3 content by ELISA after overnight incubation)", "setting": "[2]", "value": "MMP-2 activity was controlled by measuring its capacity to degrade MCP-3"}]}]}
